Assay results reported in patent US20070295907A1.

Molecular target: GFP-TIpA fusion protein (Salmonella typhimurium) [GFP: P42212]
Assay: cell-based or functional assay

## GFP-TIpA fusion protein (from UniProt P42212 1-238)
  fluorescent intensity when excited at 395 nm, temperature raised from 10° C. to 55° C.: 30%
